The target in the assay is T1, recombinant mouse CCR5 (MyBioSource) (mouse, UniProt P51682 1-354, limits assumed).
T1 construct: Coated on ELISA plates at 20 nM; also called mrCCR5
Briefly: competition ELISA: hNAMPTcif 0-100 nM against 100 nM hrNAMPT(1) on coated recombinant mouse CCR5. The procedure:
hrNAMPT competitive binding to mrCCR5: ELISA plates (Medium binding, Greiner Bio-One) were coated with 1% BSA or 20 nM of recombinant mouse CCR5 (MyBioSource) in PBS overnight at 4° C. Then, wells were blocked for 1 h at room temperature with 1% BSA in PBS containing 0.05% Tween-20 (PBS-T). Wells were washed 3 times with PBS-T and further incubated with hNAMPTcif at increasing concentration (0 nM to 100 nM) for 1 h in PBS-T with 0.1% BSA containing 100 nM hrNAMPT (1) (Peprotech). Bound hrNAMPT (1) molecules were detected using a biotinylated antibody for NAMPT and HRP-streptavidin (Human PBEF/Visfatin DuoSet ELISA, R&D Systems). Signals obtained on BSA-coated wells were used to remove non-specific binding for each hrNAMPT concentrations to obtain specific binding values. Specific binding data were fitted by non-linear regression with Prism 7 to obtain the half maximal inhibitory concentration (IC50) of hNAMPTnif using A450nm=A450nmMin+(A450nmMax−A450nmMin)/(1+10\hat{ }(X-LogIC50)).
(In an ELISA, binding on a coated surface is turned into a signal by an enzyme label.)

Usually IC50 stands for the midpoint of a concentration-inhibition curve.

T1 sequence (P51682 whole entry): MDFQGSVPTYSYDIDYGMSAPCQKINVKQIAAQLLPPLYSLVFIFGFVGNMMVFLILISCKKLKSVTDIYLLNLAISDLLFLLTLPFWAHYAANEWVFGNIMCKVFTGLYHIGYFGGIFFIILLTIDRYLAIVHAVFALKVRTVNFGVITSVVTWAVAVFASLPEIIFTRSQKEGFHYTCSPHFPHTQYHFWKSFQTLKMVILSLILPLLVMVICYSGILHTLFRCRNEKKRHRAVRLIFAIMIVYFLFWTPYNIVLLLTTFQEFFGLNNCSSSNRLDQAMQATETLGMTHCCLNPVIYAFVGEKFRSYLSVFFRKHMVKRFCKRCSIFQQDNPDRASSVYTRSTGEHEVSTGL

B1: human NAMPT cytokine finger (hNAMPTcif; NAMPT402-491) (ligand)
chain: SYVVTNGLGINVFKDPVADPNKRSKKGRLSLHRTPAGNFVTLEEGKGDLEEYGQDLLHTVFKNGKVTKSYSFDEIRKNAQLNIELEAAHH
notes: also called hNAMPTnif
Turning to B1, the IC50 came out at 21.5 nM.

For the origin of these results see patent publication US20250257332A1 (MONASH UNIVERSITY, published 2025).
